Measured values published in the RNAGym collection of RNA variant scans (doi:10.1073/pnas.2313332121).

B1: TPR t1 (parent)
chain: GACCAAUCUGCCCUCAGAGCUCGAGAACAUCUUCGGAUGCAGAGGAGGCAGGCUUCGGUGGCGCGAUAGCGCCAACGUCCUCAACCUCCAAUGCAUCCCACCACAUGAUGAUGCCUGAAGAGCCUUGGUUUUUUG

Variants of: B1
Experiment: polymerase ribozyme fitness, log enrichment relative to wild type (log ratio); higher = more active; in vitro selection for triplet polymerase activity
Outline: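 Mutant libraries for each subunit of a heterodimeric triplet polymerase ribozyme were made by PCR and then transcribed. Each library underwent one round of in vitro selection in triplicate: annealing with a biotinylated primer, the partner subunit and triplets, frozen incubation at −7 °C, gel excision of extended constructs, streptavidin-bead capture and RT-PCR. Input and output libraries were Illumina-sequenced, and only genotypes with ≥10 input reads and ≥1 read per output were kept. Fitness is the logarithm, base 2, of genotype enrichment over wild-type enrichment, computed from inverse-variance-weighted replicate averages.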

Variant | polymerase ribozyme fitness (log ratio)
C76A A118G | -0.854
A37C G61U | 0.0821
G71A A75G C104U | -0.612
C98U C114G | -5.02
A83U A100C C114U | -3.1
C20U G113U | -0.99
G52A C85G C124A | 0.15
G58A C102U C114A | -4.78
G47U A100U | -2.31
G51U C73A U106A C124A U126A U129A U131A | -2.8
G69A A111G | -2.61
C97U U116C | -0.713
A74C C102G U112C | -4.5
C12G C76A A95U C115U | -4.26
G52U U126G | -2.79
C114U C123A | -1.94
C89U C101U | -1.33
G47C G120C G122A G128U | -3.66
C13U C70A C73U | -1.58
C4G C8A C89A G120C | -0.0855
A50C G69A G120A G127A | -3.94

Variant | polymerase ribozyme fitness (log ratio)
A5G C8U G61U C94U | 0.251
C49A C56U C123A | 0.705
U96A G117A G120A U130C | -3.72
C56A C88U | -0.627
C11A U33G U54A C70U A95C U112A | -6.99
C13U G36U U133A | -1.43
C8A C20U A105G U112C G113A | -0.707
G10A G42A A43U C64U | -1.45
C85U U106G | -2.74
G10A G42U C49A C70G C98A U112G U130G | -6.93
C72G C86A U129C | -2.2
G47U C70A | -4.28
G42C C49G C72G | -3.71
U59A U125A | -0.568
C34U C86U | -5.16
U30C G71A | -2.58
G58U | -0.329
C70U C115U | -1.84
G39A G61C A118G G122A | -3.03
C3U G48A G60C G113A | -1.14
G71C A108G | -2.34

Variant | polymerase ribozyme fitness (log ratio)
A95G A119G | 1.26
C34A C53A G61C | -5.6
U92C U112C | 0.33
G10C A29C G61C C123U U125A G135A | -4.26
C8A C124U | 1.95
C13U C70G G122A | -2.19
G63C U129G | -1.93
G113U G135U | -3.24
C49U U109G | -5.61
C85U C89G | -1.76
A2U U9G A50G C62U C98A G120C | -5.94
G19U C53G U54A G61A | -2.73
C8A C12U C13G C98U | -1.16
A37G G63U U81A | -2.09
C3A C56A G135U | -2.75
G47U C56U U116C | -2.14
U106C U116A | -2.94
A16U C53G U59C U96G U112A G128C | -3.81
C3U A16G A90G U112G U116C | 0.876
C31U G61U | -4.59
A50U U78C | -2.19

Variant | polymerase ribozyme fitness (log ratio)
C3G G42A C56G U106C G113U A121U | -4.31
A5C C8G C12U C72U C94A | -1.48
C13U C79A C104A | -2.96
A2G G44A | -0.766
G60C G71U G120U U130G | -5.39
G60A C123U | 1.14
G71C U81A G120U | -1.99
G48U U116C | -1.64
G71U C76G | -2.91
C11A G120A | 0.576
G63C G93C C97U C101U | -1.93
G63A G77U A105G | -4.78
C56G G93U G135U | -3.52
U55C G113A | -1.89
C72G C73U G93C A111C G122U G135A | -4.92
A50G C99U C115U G117C | -6.47
G93A C115U | -1.29
C11U C97U G113A | -1.74
C62U U78G | -0.0458
C22A C49G G69U C85U | -2.28
C13U G60C G61A G117A | -2.25
